Laboratory results as given in article PMC2749940, “Kissing G Domains of MnmE Monitored by X-Ray Crystallography and Pulse Electron Paramagnetic Resonance Spectroscopy” (PLoS Biology, 2009).
Residue numbers refer to the chain shown, from its start. Names and notes keep the numbering of the source.

T1: CtMnmE (Chlorobaculum tepidum, UniProt Q8KAS1)
T1 construct: gene mnmE; full length, N-terminal His-tag (pET14b, E. coli BL21-DE3) cut by thrombin; homodimer
T1 sequence (Q8KAS1 1-473): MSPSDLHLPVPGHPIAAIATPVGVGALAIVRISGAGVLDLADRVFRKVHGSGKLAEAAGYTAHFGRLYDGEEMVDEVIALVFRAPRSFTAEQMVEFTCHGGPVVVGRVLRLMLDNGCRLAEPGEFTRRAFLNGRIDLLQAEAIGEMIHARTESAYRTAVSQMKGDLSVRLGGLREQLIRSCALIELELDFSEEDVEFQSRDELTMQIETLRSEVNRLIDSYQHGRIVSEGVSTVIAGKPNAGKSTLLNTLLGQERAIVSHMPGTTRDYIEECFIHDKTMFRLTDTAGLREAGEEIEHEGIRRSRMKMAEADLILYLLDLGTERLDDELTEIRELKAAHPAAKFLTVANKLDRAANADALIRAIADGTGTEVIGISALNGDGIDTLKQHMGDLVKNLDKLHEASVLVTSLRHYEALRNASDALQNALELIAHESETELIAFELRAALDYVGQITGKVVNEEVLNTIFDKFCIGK

T2: NoMnmE (Nostoc sp. PCC 7120 = FACHB-418, UniProt Q8YN91)
T2 construct: gene mnmE; full length, N-terminal His-tag (pET14b, E. coli BL21-DE3) cut by thrombin; homodimer
T2 sequence (Q8YN91 1-459): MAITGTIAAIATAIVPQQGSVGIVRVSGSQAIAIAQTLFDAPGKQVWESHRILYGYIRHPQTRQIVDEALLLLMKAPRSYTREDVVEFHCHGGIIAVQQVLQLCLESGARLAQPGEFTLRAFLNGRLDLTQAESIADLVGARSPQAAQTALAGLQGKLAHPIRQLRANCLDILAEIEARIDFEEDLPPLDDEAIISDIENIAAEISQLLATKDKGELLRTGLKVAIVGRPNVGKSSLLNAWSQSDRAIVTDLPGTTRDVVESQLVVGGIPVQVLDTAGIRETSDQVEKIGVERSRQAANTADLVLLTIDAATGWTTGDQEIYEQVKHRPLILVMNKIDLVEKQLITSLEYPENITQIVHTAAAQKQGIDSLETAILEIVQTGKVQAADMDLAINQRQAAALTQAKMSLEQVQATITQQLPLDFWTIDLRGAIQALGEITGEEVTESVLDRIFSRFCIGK

B1: Nostoc sp. 7120 MnmE (natural protein, UniProt Q8YN91 1-459, looked up)
chain: T2 sequence (Q8YN91 1-459)
notes: MnmE of Nostoc sp; 7120, full-length protomer, cloned into pET14b; Crystallised with GDP (grown with GDP-AlFx and K+); 5-formyl-tetrahydrofolate was co-purified; also called NoMnmE; NoMnmE·GDP; source: E. coli BL21-DE3, purified (Ni-NTA, thrombin cleavage of the His-tag, gel filtration on Superdex 200); not shown: His tag, N-terminal, cleaved
B2: Chlorobium tepidum MnmE (natural protein, UniProt Q8KAS1 1-473, looked up)
chain: T1 sequence (Q8KAS1 1-473)
notes: MnmE of Chlorobium tepidum, full-length protomer, cloned into pET14b; Crystallised with GDP (grown with GDP-AlFx and K+) and with GppCp; homodimer through the N-terminal domains; also called CtMnmE; CtMnmE·GDP; source: E. coli BL21-DE3, purified (Ni-NTA, thrombin cleavage of the His-tag, gel filtration on Superdex 200); not shown: His tag, N-terminal, cleaved
B3: E. coli MnmE-C451S E287R1 (Glu287 mutated to Cys, MTSSL-labelled) (natural protein, UniProt P25522 1-454, looked up)
chain: MSDNDTIVAQATPPGRGGVGILRISGFKAREVAETVLGKLPKPRYADYLPFKDADGSVLDQGIALWFPGPNSFTGEDVLELQGHGGPVILDLLLKRILTIPGLRIARPGEFSERAFLNDKLDLAQAEAIADLIDASSEQAARSALNSLQGAFSARVNHLVEALTHLRIYVEAAIDFPDEEIDFLSDGKIEAQLNDVIADLDAVRAEARQGSLLREGMKVVIAGRPNAGKSSLLNALAGREAAIVTDIAGTTRDVLREHIHIDGMPLHIIDTAGLREASDEVERIGICRAWQEIEQADRVLFMVDGTTTDAVDPAEIWPEFIARLPAKLPITVVRNKADITGETLGMSEVNGHALIRLSARTGEGVDVLRNHLKQSMGFDTNMEGGFLARRRHLQALEQAAEHLQQGKAQLLGAWAGELLAEELRLAQQNLSEITGEFTSDDLLGRIFSSFSIGK
modifications: MTSSL spin label (R1 side chain) on the cysteine at 287
notes: MnmE of E. coli, full length, Cys mutant in the C451S background; also called EcMnmE E287R1; source: purified, nucleotide-free
B4: E. coli MnmE-C451S S278R1 (Ser278 mutated to Cys, MTSSL-labelled) (natural protein, UniProt P25522 1-454, looked up)
chain: B3 chain with S278C, C287E
modifications: MTSSL spin label (R1 side chain) on the cysteine at 278
notes: MnmE of E. coli, full length, Cys mutant in the C451S background; source: purified, nucleotide-free
B5: E. coli MnmE-C451S D366R1 (Asp366 mutated to Cys, MTSSL-labelled) (natural protein, UniProt P25522 1-454, looked up)
chain: B3 chain with C287E, D366C
modifications: MTSSL spin label (R1 side chain) on the cysteine at 366
notes: as for B4
B6: E. coli MnmE-C451S I105R1 (Ile105 mutated to Cys, MTSSL-labelled) (natural protein, UniProt P25522 1-454, looked up)
chain: B3 chain with I105C, C287E
modifications: MTSSL spin label (R1 side chain) on the cysteine at 105
notes: as for B4

Legend:
CtMnmE = target: T1, CtMnmE; assay: X-ray crystal structure (soak); assay type: binding; settings: 5 mM 5-F-THF in cryoprotectant; N-terminal domain dimer interface; GDP also bound
NoMnmE = target: T2, NoMnmE; assay: X-ray crystal structure; assay type: binding; settings: copurified from E. coli; two sites in N-terminal domain dimer interface; GDP also bound
[1] = target: the molecule itself; assay: crystal structure; full-length MnmE crystallised with K+, GDP and AlFx (only GDP found bound); hanging-drop vapour diffusion; homodimer by crystallographic symmetry
[2] = target: the molecule itself; assay: pulse EPR (four-pulse DEER) of spin-labelled protein; 200–500 µM MTSSL-labelled protein in 100 mM KCl (or NaCl, RbCl, CsCl, NH4Cl), 50 mM Tris-HCl, 5 mM MgCl2 pH 7.4; apo, 1 mM GDP, 1 mM GppNHp or GDP-AlFx; measured at 50 K; distances between the two symmetry-related labels of the dimer

| Molecule | binding result [2] | further results |
| --- | --- | --- |
| Nc1nc2c(c(=O)[nH]1)N(C=O)[C@@H](CNc1ccc(C(=O)N[C@@H](CCC(=O)O)C(=O)O)cc1)CN2 [5-F-THF, 5-formyl-tetrahydrofolate] | – | X-ray crystal structure (soak) (CtMnmE): in the crystal structure 5-F-THF is found in identical positions as in the NoMnmE·GDP-dimer; X-ray crystal structure (NoMnmE): two molecules of 5-formyl-tetrahydrofolate (5-F-THF) were identified in the structure of NoMnmE·GDP |
| B1 | – | binding result [1]: binds |
| B2 | – | binding result [1]: binds |
| B3 | binds | – |
| B4 | binds | – |
| B5 | binds | – |
| B6 | binds | – |
